Assay results published in the supplement of paper PMC7125110.
± gives the standard error. Fewer inactive variants are shown than the library holds.

B1: glmS ribozyme (parent)
chain: AUAAAAGCGCCAGAACUACAGAAAUGUAGUUGACGAGGAGGAGGUUUAUCGAAUUUUCGGCGGAUGCCUCCAAA

Variants of: B1
Assay: self-cleavage kobs at 10000 uM GlcN6P; higher = faster cleavage; RNA array
Conditions: with glucosamine-6-phosphate
Method in brief: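 E. coli RNA polymerase transcribed barcoded ribozyme variants in situ on sequenced MiSeq chips, which were tracked via a hybridised Cy3 probe at 37 °C. Tiles were imaged over ~14 h after glucosamine-6-phosphate (40 μM to 10 mM) in HEPES/KCl/Mg(OAc)2 buffer was flowed in. Normalised per-tile medians were fit to one- or two-exponential decays for kobs, and kcat and KM came from weighted Michaelis–Menten fits.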

Row | Variant | self-cleavage kobs at 10000 uM GlcN6P [s⁻¹]
1 | C16A G29U C58A | 0.000415 ± 0.00011
2 | A6C U31G G40C | < 1e-05
3 | G13A G32C U69G | 5.76e-05 ± 2.1e-05
4 | U30C G35U G43U G66U | < 1e-05
5 | C16U A53U U65G | 0.00246 ± 0.00058
6 | A52U U65A | 2.95e-05 ± 9.7e-06
7 | G7A U57A C58A | < 1e-05
8 | G7A U55G C67U C70G | 4.07e-05 ± 1.8e-05
9 | A12G U46G A53U | 9.96e-05 ± 1.8e-05
10 | U56C G66A C71U | 0.000503 ± 0.00011
11 | C10A A36U A39U | < 1e-05
12 | A39G G60C C70U | < 1e-05
13 | C11A U55A U56C | 2.5e-05 ± 1.1e-05
14 | G59C A64U C71G | < 1e-05
15 | A39U G63U U65A | < 1e-05
16 | A15C U31A G38C G41C | < 1e-05
17 | C8A G35C A53U | < 1e-05
18 | G7A U30G A33G U69G | 0.000162 ± 2.9e-05
19 | A15U G38U U57C C61U | < 1e-05
20 | A15U A39G U57C | 6.65e-05 ± 1.8e-05
21 | A6C A36U U69A | < 1e-05
22 | G13U G38C G62A | < 1e-05
23 | C8A C34U A64U C68U | < 1e-05
24 | C10A C50U G59A | < 1e-05

Row | Variant | self-cleavage kobs at 10000 uM GlcN6P [s⁻¹]
25 | C8G C10U U54G | < 1e-05
26 | U45G G59U | 4.05e-05 ± 1.2e-05
27 | A39C G44C C50G U55G C67U | < 1e-05
28 | A14U U46G A53G | 0.000633 ± 9.6e-05
29 | C11A C16G C58U C68A | 0.000263 ± 8.9e-05
30 | A6U C11A A39G | < 1e-05
31 | A14C U30G A33G G37A C68G | < 1e-05
32 | A6U C11G G41C G62A G66U | < 1e-05
33 | G40U A48G C70A | 3.93e-05 ± 9.6e-06
34 | G38A G59C U65C C70A | < 1e-05
35 | U54G C61A | < 1e-05
36 | C8A A48U G66U | < 1e-05
37 | A15G A53U U69G | 5.88e-05 ± 1.8e-05
38 | A12C A42C G59C | < 1e-05
39 | C50A G59C C70U | < 1e-05
40 | A33U A39C A48C | < 1e-05
41 | G43U C50U G63A | < 1e-05
42 | A14U A42G U47C | 0.000229 ± 8.1e-05
43 | A6C G43A G59C C70U | < 1e-05
44 | G35A U49G C61U | < 1e-05
45 | C10U A42G | 3.17e-05 ± 7.6e-06
46 | G13U C34U G63U | < 1e-05
47 | A39U C67A C70U | 0.00654 ± 0.0014
48 | G13C A42G U65C | < 1e-05

Row | Variant | self-cleavage kobs at 10000 uM GlcN6P [s⁻¹]
49 | A14C G59C G62C | < 1e-05
50 | G9A U30C G35U U55G | < 1e-05
51 | A15G U46G C67G | 0.000339 ± 6e-05
52 | A33C C50A C67G C68G | 7.88e-05 ± 2.1e-05
53 | G13U C16U A53U G62U | < 1e-05
54 | U54A C67U C70A | 4.02e-05 ± 1.6e-05
55 | A39U A52G C67G | 0.00016 ± 3.6e-05
56 | A14G U47C U56G | 0.0112 ± 0.0019
57 | G40A U45C U65G C67G | 0.00034 ± 0.00012
58 | G43A U57C G59U A64U | < 1e-05
59 | A12G C58A C70G | 3.02e-05 ± 1.3e-05
60 | A33C G44C G60A | < 1e-05
61 | A42U C58U G59U U65A C70G | < 1e-05
62 | C11A C58A G59A | 6.59e-05 ± 1.3e-05
63 | A33G A36G A39U A53G | < 1e-05
64 | A14G A15G U47C U55A C70G | 0.000483 ± 0.00014
65 | A6C U30G G35U | < 1e-05
66 | A14U A42U U57C | < 1e-05
67 | G13A A42G | 0.000882 ± 0.00023
68 | G38U C50G C71A | 9.8e-05 ± 1.9e-05
69 | G7A C8G G9C G29U G35C G37A | < 1e-05
70 | U31G G38U A53U | < 1e-05
71 | A12U A42G C58G | 0.00079 ± 0.00015
72 | A39C G59A C68A | < 1e-05

Row | Variant | self-cleavage kobs at 10000 uM GlcN6P [s⁻¹]
73 | A33C A36G U47G G51A | < 1e-05
74 | C11G G29U C34A A36U G37U G44C C68U | < 1e-05
75 | G9C U46A C58U | < 1e-05
76 | U31C C58A G63U | < 1e-05
77 | G9A A36U U45A A64C | < 1e-05
78 | G9A A12U C70G | < 1e-05
79 | C34A G41A C68G | < 1e-05
80 | G29U U56C | 0.000483 ± 0.00016
81 | G38C U45C U49A A53U | < 1e-05
82 | C34A G63U C70A | < 1e-05
83 | U31A C58U | 4.45e-05 ± 6.1e-06
84 | G38C A42G A64G | < 1e-05
85 | A42C G44C G51U G66A | < 1e-05
86 | C11U U31C A42G A53U | 0.000372 ± 8e-05
87 | C16A G29U U45G | 0.0036 ± 0.00061
88 | C34A G66U C67G | < 1e-05
89 | G32A G37C G40A | < 1e-05
90 | C8U G37C G43A C58A | < 1e-05
91 | U30G A53U U69A | 4.29e-05 ± 1.8e-05
92 | C11U C34G G51A A52U C68G | 0.000563 ± 0.00022
93 | A15G C61G G62C | < 1e-05
94 | A33U U45A U46G | 0.000433 ± 5.7e-05
95 | G37A A39G U54G U55A | 0.00276 ± 0.00061
96 | A6C G7C G32A A52U | < 1e-05

Row | Variant | self-cleavage kobs at 10000 uM GlcN6P [s⁻¹]
97 | C16U G37A U65G | 0.000183 ± 3.8e-05
98 | G43C G62C A64G C68G | < 1e-05
99 | A14G U31G C67U | 0.00162 ± 0.00041
100 | C10G G32U G44A U54A C68A | < 1e-05
101 | A39U G66U C67A | 0.00316 ± 0.00061
102 | G13C C71A | 4.74e-05 ± 1.4e-05
103 | A33U A42C U49A C58G C61G | < 1e-05
104 | G43A A53U G59C G60U | < 1e-05
105 | A36U A42U C61U | < 1e-05
106 | A12C G32A G38A | < 1e-05
107 | U57G G62C | < 1e-05
108 | A12G A39C G66U | 6.62e-05 ± 1.8e-05
109 | G13C C67U C68G | < 1e-05
110 | A36U A52U U65G U69C | < 1e-05
111 | G9A G29A G40U G51A | < 1e-05
112 | G9A A39C G41A A48C U49A | < 1e-05
113 | C10U G35U A42G U56G | < 1e-05
114 | A39C U49A C61U C70G | < 1e-05
115 | C10G C50U G62U C70G | < 1e-05
116 | U30A A33U G37C U69A | < 1e-05
117 | A15G G44U C58U C67A | 2.9e-05 ± 1.2e-05
118 | G9U G41A C50U G60C | < 1e-05
119 | U55A C58U U65C | < 1e-05
120 | A5U C8G G9U U30C | < 1e-05

Row | Variant | self-cleavage kobs at 10000 uM GlcN6P [s⁻¹]
121 | G9A U45G C68U | < 1e-05
122 | G29U A53C G60A | < 1e-05
123 | G9A U56C C58G | < 1e-05
124 | A42C G44U G66U | < 1e-05
125 | C16G C50G A52C U55A C70U | 4.88e-05 ± 1.9e-05
126 | C8A A14G C70G | < 1e-05
127 | U49A C61A | < 1e-05
128 | C8A A12G A39G U45A A48C U55C | < 1e-05
129 | C10U A15U U45A | < 1e-05
130 | C16U C34U G44A | < 1e-05
131 | A6U G51C G63C U69G | < 1e-05
132 | U54G G63C U65C C68G C71G | 3.78e-05 ± 1.6e-05
133 | C8U A36U U45A | < 1e-05
134 | C10U C11U G66C | < 1e-05
135 | G13U U31G A64G | 0.00021 ± 5.2e-05
136 | A6G C50G C68G | 2.86e-05 ± 1.1e-05
137 | A42G U49A C50G | < 1e-05
138 | G13C U55G C58G | 4.29e-05 ± 1.4e-05
139 | A14U A15C C68U | 6.11e-05 ± 2e-05
140 | G38A U49A G66U | < 1e-05
141 | U46C U49A | < 1e-05
142 | A6G G59C G62A | < 1e-05
143 | G35C C50G A53C | 3.34e-05 ± 8.6e-06
144 | C8U G32C A33C G40C | < 1e-05

Row | Variant | self-cleavage kobs at 10000 uM GlcN6P [s⁻¹]
145 | G44C U65G C67U | 0.000247 ± 8.5e-05
146 | A6G G7A C16G U47A A53C C58A | < 1e-05
147 | A6U G35A U46G G51U C61A | < 1e-05
148 | C11A A53C | 2.2e-05 ± 1.1e-05
149 | A14U U30G U31C | 0.000695 ± 0.00016
150 | C11U U57C | 5.06e-05 ± 1.6e-05
151 | C16U G41U U47A | 0.000489 ± 7.1e-05
152 | G29C U31C G66A | 0.000105 ± 2.5e-05
153 | C8A A14U A39C | < 1e-05
154 | G7A A53G | 3.18e-05 ± 9.4e-06
155 | A12G G37A G43A A52G | < 1e-05
156 | G29C A64G C70U | 3.15e-05 ± 1.4e-05
157 | G32U G41A A53G | 0.000262 ± 6.5e-05
158 | G32U A52G C70A | 8.27e-05 ± 2.1e-05
159 | G29U G35C G43C G59A | < 1e-05
160 | G29U U47G C67G | 0.000103 ± 1.9e-05
161 | U30A C67G C71G | < 1e-05
162 | A12G U46C | 0.000349 ± 5.9e-05
163 | A12G A14U C58A | 0.000276 ± 5.2e-05
